Reference: the DeepSol protein solubility set

Experiment: soluble on expression in E. coli; label from the status in PepcDB or PDB records

Question: Which “soluble on expression in E. coli” value does the source give for “MTEVYDLEITTNATDFPMEKKYPAGMSLNDLKKKLELVVGTTVDSMRIQLFDGDDQLKGELTDGAKSLKDLGVRDGYRIHAVDVTGGNEDFKDESMVEKYEMSDDTYGKRTDSVRAWKKKMQEEQGSAAPMENESDKLNEEAAKNIMVGNRCEVTVGAQMARRGEVAYVGATKFKEGVWVGVKYDEPVGKNDGSVAGVRYFDCDPKYGGFVRPVDVKVGDFPELSIDEI” here?
Answer: The value was “soluble”.

Question: For “MTFEEKRKHLETTYPNKRTPESRAKSREILKLIADNLEMFPIASPESSSSKAKTDPMSRLEHGSEFNDLTVPRVEKLTPVSELYSIENTSLKFGTEDDFSDLSYSNTSPFQSVSTLYDQPSTPFSDDSDLEATPRTCVQ”, which “soluble on expression in E. coli” value is on record?
Answer: The value was “not soluble”.

Question: Which “soluble on expression in E. coli” value does the source give for “MTFLRYAIYFLPPASEAWAGFGASWLGWDVETGQELAHPAETGLDVAALTATPRKYGLHATMKPPFRLAEGQDVDALRRACATLAASRPAVTLDGLEIARLGRFLALRPVGELGALNALAAACVTELDPFRAPATPQELVRRRAARLSPEQDAHLLSWGYPYVLDQFRFHITLTGRLDDDMLMQAQTLLQRRLGPLLPVPFTLADLALVGEAGDGRFHLIHRYALSR” here?
Answer: Its value is “not soluble”.

Question: With “MTGAATAAENSATQLEFYRKALNFNVIGRYDPKIKQLLFHTPHASLYKWDFKKDEWNKLEYQGVLAIYLRDVSQNTNLLPVSPQEVDIFDSQNGSNNIQVNNGSDNSNRNSSGNGNSYKSNDSLTYNCGKTLSGKDIYNYGLIILNRINPDNFSMGIVPNSVVNKRKVFNAEEDTLNPLECMGVEVKDELVIIKNLKHEVYGIWIHTVSDRQNIYELIKYLLENEPKDSFA” as the sequence, how does the “soluble on expression in E. coli” value read?
Answer: The value was “soluble”.

Question: With “MTGAVCPGSFDPVTLGHVDIFERAAAQFDEVVVAILVNPAKTGMFDLDERIAMVKESTTHLPNLRVQVGHGLVVDFVRSCGMTAIVKGLRTGTDFEYELQMAQMNKHIAGVDTFFVATAPRYSFVSSSLAKEVAMLGGDVSELLPEPVNRRLRDRLN” as the sequence, how does the “soluble on expression in E. coli” value read?
Answer: The value was “soluble”.

Question: With “MTGITIFYGDNIIRYVVNTKKGLRPYFKQLPDNYQAKFELNLMSKFSNFIINKPFSAINTAARHIFSRYLLENKHLFYQYFKISNTGIDHLEQLINVNFFSSDRTSFCECNRFP” as the sequence, how does the “soluble on expression in E. coli” value read?
Answer: The value was “not soluble”.

Question: Which “soluble on expression in E. coli” value does the source give for “MTGKSVREVPMTEEILAESIALRLRRDILRGKLVPGTSIKERDNAAEMGVSRTPMREAIRILANEGLVQLRPSRSPIVTQLSLNEVVSFIEVLSALEMLAVTLACERATKIDIAHVRGAERKLATQYDRIDQVERFELDMDFHIALTRASHNQALSDTHMSYLRRLWYARFQSARNRHTKDRVLQQHAALVDAIERRDPTMAQTELSSHLENLRINVHAYFERAEREQLQLKNSA” here?
Answer: Its value is “not soluble”.

Question: For “MTGMRKTLKATLAEARAQVEAALKEEGFGILTEIDVAATLKAKLGLEKPPYLILGACNPNLAARALEALPEIGLLLPCNVVLREAEEGVEVLIQDPKEMFRVLPEATQRALAPVAEEARTRLSRALSRL”, which “soluble on expression in E. coli” value is on record?
Answer: The value was “soluble”.

Question: With “MTGPTPTEAVDITVSVGGFKVGDQNYPINPKITFTNNTGQAIPGGTEFQFDIPVSAPDNAKDQSGGGLKVIASGHTRANNIGGLDGVMHRVSFSLPAWKDLPAGGTYELDMVYYLPISGPANYSVISGGKEFAFKFEQPDLPIGDLNAGTGGGGTTEPGSCDTAGLVTYPNLPQTDLEHHHHHH” as the sequence, how does the “soluble on expression in E. coli” value read?
Answer: Its value is “soluble”.

Question: With “MTGTYEQPVIDATYHNDDQGGHANQLVLKYVEDRKLSKVFKRICDSFKDYYNQPEDMTDEELDYQRVVSLSKSTQGKVNNRDTLIAFISDHNQLAEHLSMNYKEMTPEDLGAILESISQAFNHLYDMVVEGQLLVK” as the sequence, how does the “soluble on expression in E. coli” value read?
Answer: Its value is “not soluble”.

Question: Which “soluble on expression in E. coli” value does the source give for “MTGYACNHPNIYQSCNCQSFCQPYTHPHEMYYHHGYGCNGHCLDHQESMCEEDDECGMKKRKKHRKKNKKKKNKKKFRFSDEEDDEEKVAHHKKKPIEEDDDEFPLPPNSEEVAEASKSSKKEEDWEDDDKWERKFVSQTTTPAPRQAASGGGLGGLGLGNGGLFGISSGVGVGIPGVGPIGVSSGLGIGK” here?
Answer: Its value is “not soluble”.

Question: Which “soluble on expression in E. coli” value does the source give for “MTIETIKRIIEEENVRFIRLQFTDINGTLKNLEITPDVFLESWEDGIMFDGSSIEGFVRIEESDMYLKPVLDTFAVLPWTVDGAKSARVICDVYTPDGKPFEGDPRYRLRRMMEKAEQLGYTPYAGPEMEFFILPINEKGEPVPEFLDHGGYFDLLPLSKVEEIRRDIAIALEKMGITVEATHHEVAPSQHEVDFRYDTFLRTADNAQTVKLVIKTMAIFHGYHATFMPKPFYGVNGSGMHVHMSLFRGDKNAFYDPDDPLGLSKELRYFVGGILKHAKALAAVTNPTINSYKRLVPGYEAPVYISWSVGNRSALIRIPKARGKATRLEYRSPDPSCNIYLAFAAILAAGLDGIINKIEPPAPVEENIYHMTSERREELNIESLPGSLKEAVEELKKDDVIIDALGEHIFEKFVEAAEKDWKEFSTYVTNWELQRYLYL” here?
Answer: Its value is “soluble”.

Question: Which “soluble on expression in E. coli” value does the source give for “MTIGIDKINFYVPKYYVDMAKLAEARQVDPNKFLIGIGQTEMAVSPVNQDIVSMGANAAKDIITDEDKKKIGMVIVATESAVDAAKAAAVQIHNLLGIQPFARCFEMKEACYAATPAIQLAKDYLATRPNEKVLVIATDTARYGLNSGGEPTQGAGAVAMVIAHNPSILALNEDAVAYTEDVYDFWRPTGHKYPLVDGALSKDAYIRSFQQSWNEYAKRQGKSLADFASLCFHVPFTKMGKKALESIIDNADETTQERLRSGYEDAVDYNRYVGNIYTGSLYLSLISLLENRDLQAGETIGLFSYGSGSVVEFYSATLVEGYKDHLDQAAHKALLNNRTEVSVDAYETFFKRFDDVEFDEEQDAVHEDRHIFYLSNIENNVREYHRPE” here?
Answer: Its value is “soluble”.

Question: For “MTIGQKNTNIDPRFPHHHPRPQSFWEARAKALESLLIEKGHLSSDAIERVIKHYEHELGPMNGAKVVAKAWTDPAFKQRLLEDSETVLRELGYYGLQGEHIRVVENTDTVHNVVVCTLCSCYPWPLLGLPPSWYKEPAYRARVVKEPRQVLKEFGLDLPDSVEIRVWDSSSEIRFMVLPQRPEGTEGMTEEELAKLVTRDSMIGVAKIEPPKVTVG”, which “soluble on expression in E. coli” value is on record?
Answer: Its value is “soluble”.

Question: With “MTIHIDFLDETNEVTAEQIETIERLLAEAAALENVPDGAEVSVTFVDNERIRAMNRDYRGKDAPTDVLSFALEEEGEEEVHIVGADMPPVLGDIVISIPKAKEQAAAYGHSFMRELGFLAVHGFLHLLGYDHGTEEEERVMFAKQEDILARFGLTR” as the sequence, how does the “soluble on expression in E. coli” value read?
Answer: The value was “not soluble”.

Question: For “MTIIAGTVVKGKQLGRKLGFPTANVDAKIHGLRNGVYGVLATVNHQFHLGVMNIGVKPTVGSNLEKTLEIFLFDFHRDIYGEKIECSILFKIREERRFDSLESLTKQIKKDISCVAKRFELIGIMAPNKKESLLSHQELNLPDLCFYKKCNNLYGVNRGVYNVIDNWFFEYGITQVAYRRIYILSFLSFLKEDNPKVSSKYIRFGAGGLADKLNRFISSYVEESEENILGLEHHHHHH”, which “soluble on expression in E. coli” value is on record?
Answer: Its value is “soluble”.

Question: Which “soluble on expression in E. coli” value does the source give for “MTIKTPTVKVPGLGTDPLEQRIKEKEKKWKYKIAVLSGKGGVGKSTVAVNLTAALAKMGYFVGILDADIHGPNVAKMLGVDKEEVYAEKFDDGHFEMIPPTTDFMGQVTPIKVMSMGMMVPEDQPVIWRGPLVTKAIKQLLGDVKWGSLDFMIIDFPPGTGDEILTVVQSIKLDAAIIVTTPQEVALLDTGKAVNMMKKMEVPYVAVVENMSYLICPHCGNKIDIFGEGGGEKLAQKEGVDFLGKIPIDLKAREASDLGIPIVLYEDTPAAKAFMELAEKLVNKLKEIKGDGGKELEHHHHHH” here?
Answer: The value was “soluble”.

Question: Which “soluble on expression in E. coli” value does the source give for “MTILEELNDSSIPQRLDNHIFFGSVHSLTHTDFLVENNIRFFINVDLSTELISHIYHEVRSKFAHEIVIVNIDNDSQIPIESDLVRSFHWHNTSLLQQLIHHLDFLSGINNHGEPLTPPPESHYRNAYVQFDHPSDSVSILDKLLYGNKSEYSRTNIFQVTNEAKFQVFNDLITIFKYSIAQGGNTNSNILVLSENGSTDENLISLLMSTVLKENPTFNVYQALQFVKSIAVIPDTVRDEKILWVTGFINYQELIKKNEMYWGLGSQKGRKLTSFASPISKVERKQRRRDDQNIMRSKLPQQRQNPFCSTERPKRARCD” here?
Answer: The value was “not soluble”.

Question: With “MTIRVAINGFGRIGRNFLRCWFGRQNTDLEVVAINNTSDARTAAHLLEYDSVLGRFNADISYDENSITVNGKTMKIVCDRNPLNLPWKEWDIDLVIESTGVFVTAEGASKHIQAGAKKVLITAPGKAEGVGTYVIGVNDSEYRHEDFAVISNASCTTNCLAPVAKVLHDNFGIIKGTMTTTHSYTLDQRILDASHRDLRRARAAAVNIVPTTTGAAKAVALVIPELKGKLNGIALRVPTPNVSVVDLVVQVEKPTITEQVNEVLQKASQTTMKGIIKYSDLPLVSSDFRGTDESSIVDSSLTLVMDGDLVKVIAWYDNEWGYSQRVVDLAELAARKSGRLGLVQTLLISSQDSLPLTGGFFVAKREHPRSQDSINPSGPD” as the sequence, how does the “soluble on expression in E. coli” value read?
Answer: Its value is “soluble”.

Question: With “MTIYDINFAELYQQHLIACNHYNLPPIKWDKKAVKMAENLVGKPSAYNQQLLQAMNVQTDEAVLDIGCGPGTFAVPLAQQGSTVYALDYSNGMLDCLAQFKQKFGLHHLTTFHKSWADNWDDVPQADVVLASRSTLVDDLDDMIEKLCAKAKKRVFLTSVTQRHFLDEGVFEAIGREDIGFPTYIYLLNRLYQKGIQANLNFIETESGCFQGESYEDLLASVEFSLGELSEKEKQGLKAFYDRKQANNEPISHGQKKWALIWWNVDRILEHHHHHH” as the sequence, how does the “soluble on expression in E. coli” value read?
Answer: The value was “soluble”.

Question: With “MTIYMFNNVNLQRQYMIDTIIFDFDGVILNSEPMHFEAIVQVLNQSGINLAYEEYMTHYLGLSDISLFPKILNDKGLAFSSTEIHQVIERKVRVYNELIENSEQLPMTPDLDWFLVRVARQYGKIGICSGSNRHSIIKILEKIHCGRLACYFKTIVSCEDVSLGKPSPEGYLLAAHRLQSKPENCLVIEDSEHGVAAAKAGGMLVAGLLTTLSRDLLANADMIVHDFKELDHLLNSH” as the sequence, how does the “soluble on expression in E. coli” value read?
Answer: The value was “not soluble”.

Question: For “MTKDLLLELGLEELPAYVVTPSEKQLGQKMVKFLEDHRLSFETVQIFSTPRRLAVRVKGLADQQTDLTEDFKGPSKKIALDAEGNFSKAAQGFVRGKGLSVDDIEFREVKGEEYVYVTKHETGKSAIDVLASVTEVLTELTFPVNMHWANNSFEYIRPVHTLVVLLDDQALELDFLDIHSGRISRGHRFLGSDTEISSASSYEDDLRQQFVIADAKERQQMIVNQIHAIEEKKNISVEIDEDLLNEVLNLVEYPTAFLGSFDEKYLDVPEEVLVTSMKNHQRYFVVRDRDGKLLPNFISVRNGNAEHIENVIKGNEKVLVARLEDGEFFWQEDQKLNIADLVEKLKQVTFHEKIGSLYEHMDRVKVISQYLAEKADLSDEEKLAVLRAASIYKFDLLTGMVDEFDELQGIMGEKYALLAGEQPAVAAAIREHYMPTSADGELPETRVGAILALADKFDTLLSFFSVGLIPSGSNDPYALRRATQGIVRILEAFGWDIPLDELVTNLYGLSFASLDYANQKEVMAFISARIEKMIGSKVPKDIREAVLESDTYI”, which “soluble on expression in E. coli” value is on record?
Answer: Its value is “not soluble”.

Question: With “MTKGKGRNPGASGLDKHLKRKTHLERSQPKSRQHLGQLEKHKDHVLRAKKRKVKVRRLQEIKRAAAQRNPDEFNIGMTKAVMDVANGRMRQRRVRLVESDRKKDMQTTIEHNRRNVQYLEFKAQADQQRATELLNEEAAAALTSTAPQNKHIVFVNSEEEFRSFNPLKHFDVTPEMMRQHPAVRGRIRVLEKTVMPEEILMSGGHQIKSAAQKRKERREVQEKMRRSGADATPETRAAFVERLRAKKELKQYQFTDLLEEVKRESEATASSSKGAPGDDGEQEEAAAQDEVTRLLEWRREQERQAAIATARHVREVGQRIQRSKSLSALAKSIRKQSQGIKRQMEQRRESRFKPGATRRAR” as the sequence, how does the “soluble on expression in E. coli” value read?
Answer: The value was “not soluble”.

Question: Which “soluble on expression in E. coli” value does the source give for “MTKINVPLETSNKTTSDLEKKKPFSVLLMGSDARPGETNGRADTIILATANKQQNAVEMVSIPRDTKVDYGNGDIGKINASYSNGGPSGTVSAVEKLMPGVPVDYFISINMEGFKDLVDAVGGITVYNDIDLTEVNSKFVKGNITLNGTDALQYVRIRHEDPRGDFGRQDRQRDVIIGIANKVISSSGVSNFESIMKAVGDNFQTNMTLTDITSMATNYSSVLKNVDSQELKGEGEMIYSESYGFDLYYFAPDETDLERVINMFKKSLDITELEHHHHHH” here?
Answer: Its value is “soluble”.
